Target: the molecule itself
Assay: homodimer formation, SDS-PAGE on non-reducing conditions
Procedure: Purified proteins were analyzed by SDS-PAGE in both denaturing and non-denaturing conditions, staining the gels with Silver Snap Stain KitII (Pierce) or Page Blue Protein Staining Solution (Fermentas). Alternatively, proteins were transferred to nitrocellulose membrane and detected using a VEGF-D monoclonal antibody (MAB286, R&D Systems).
Covalent dimer formation: The ability of VEGF-$D^{\Delta N \Delta C}$, VEGF-$D^{\Delta N \Delta C}$25A and VEGF-$D^{\Delta N \Delta C}$53A to form covalent dimers was evaluated by SDS-PAGE on non-reducing conditions. […] As expected, covalent dimer formation of VEGF-$D^{\Delta N \Delta C}$53A was hindered.

B1: VEGF-D^ΔNΔC (ligand, not shown: small tags and cut ends)
chain: FYDIETLKVIDEEWQRTQCSPRETCVEVASELGKSTNTFFKPPCVNVFRCGGCCNEESLICMNTSTSYISKQLFEISVPLTSVPELVPVKVANHTGCKCLPTAPRHPYSHHHHHH
notes: Amino acids 93-201 of wild-type VEGF-D with N-terminal Flag-tag and C-terminal 6xHis; found partially as a covalent dimer, otherwise non-covalent dimer or monomer; also called mature form of VEGF-D; native VEGF-D^ΔNΔC
binding result: binds

B2: VEGF-D^ΔNΔC25A (ligand, not shown: small tags and cut ends)
chain: FYDIETLKVIDEEWQRTQCSPRETAVEVASELGKSTNTFFKPPCVNVFRCGGCCNEESLICMNTSTSYISKQLFEISVPLTSVPELVPVKVANHTGCKCLPTAPRHPYSHHHHHH
notes: Formed more covalent dimer than the native form; also called Cys25 to Ala mutant of VEGF-D^ΔNΔC
binding result: binds

Reference: patent US8188039 (ARK THERAPEUTICS GROUP, dated 2012)
